Consider 13 molecules from patent US20230143604A1, “QW DOSING OF GIP RECEPTOR AGONIST PEPTIDE COMPOUNDS AND USES THEREOF” (TAKEDA PHARMACEUTICAL COMPANY LIMITED, priority 2020, published 2023).

Starred links: 1 amine or outer side, 2 acyl side, 3 side chain; linkers in the order of their positions; H or OH if unused. Non-standard residues stand in square brackets, D forms with d. Groups on a side chain read outwards from the residue. No end group written: not given here. *: point of attachment. C18 diacid = O=C(O)CCCCCCCCCCCCCCCCC(=O)*; C17 diacid = O=C(O)CCCCCCCCCCCCCCCC(=O)*; γGlu = O=C(O)[C@H](CCC(=O)[*:2])N[*:1]; NMeY = CN[C@@H](Cc1ccc(O)cc1)C(=O)O; AEEA = NCCOCCOCC(=O)O; Aib = CC(C)(N)C(=O)O

Assay [1] addresses T1, full-length human GIPR with an N-terminal FLAG tag (human, UniProt P48546 22-466).
T1 sequence (looked up): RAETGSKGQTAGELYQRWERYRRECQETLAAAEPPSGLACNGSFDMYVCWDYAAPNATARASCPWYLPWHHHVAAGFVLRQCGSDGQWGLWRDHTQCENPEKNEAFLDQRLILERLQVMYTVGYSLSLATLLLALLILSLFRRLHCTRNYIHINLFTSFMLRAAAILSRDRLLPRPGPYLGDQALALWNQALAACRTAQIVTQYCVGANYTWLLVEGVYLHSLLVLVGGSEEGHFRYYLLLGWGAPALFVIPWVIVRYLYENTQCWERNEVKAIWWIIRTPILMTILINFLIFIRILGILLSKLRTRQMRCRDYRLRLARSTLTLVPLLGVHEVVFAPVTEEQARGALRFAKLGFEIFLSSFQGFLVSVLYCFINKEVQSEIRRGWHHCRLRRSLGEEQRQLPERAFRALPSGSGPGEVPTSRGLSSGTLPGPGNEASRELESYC
The assay can be described thus: cell-based or functional assay.

The target in assay [2] is full-length human GLP-1R with an N-terminal FLAG tag (human, UniProt P43220 24-463). The assay can be described thus: cell-based or functional assay.

B1: Compound No. 130 (peptide)
peptide: H-Y[Aib]EGTFISDYSIALDK[Aib]AQQK([AEEA-AEEA-γGlu-γGlu-C17 diacid])FVEWLLAQRG-OH
SMILES: CC[C@H](C)[C@H](NC(=O)[C@H](CO)NC(=O)[C@H](Cc1ccc(O)cc1)NC(=O)[C@H](CC(=O)O)NC(=O)[C@H](CO)NC(=O)[C@@H](NC(=O)[C@H](Cc1ccccc1)NC(=O)[C@@H](NC(=O)CNC(=O)[C@H](CCC(=O)O)NC(=O)C(C)(C)NC(=O)[C@@H](N)Cc1ccc(O)cc1)[C@@H](C)O)[C@@H](C)CC)C(=O)N[C@@H](C)C(=O)N[C@@H](CC(C)C)C(=O)N[C@@H](CC(=O)O)C(=O)N[C@@H](CCCCN)C(=O)NC(C)(C)C(=O)N[C@@H](C)C(=O)N[C@@H](CCC(N)=O)C(=O)N[C@@H](CCC(N)=O)C(=O)N[C@@H](CCCCNC(=O)COCCOCCNC(=O)COCCOCCNC(=O)CC[C@H](NC(=O)CC[C@H](NC(=O)CCCCCCCCCCCCCCCC(=O)O)C(=O)O)C(=O)O)C(=O)N[C@@H](Cc1ccccc1)C(=O)N[C@H](C(=O)N[C@@H](CCC(=O)O)C(=O)N[C@@H](Cc1c[nH]c2ccccc12)C(=O)N[C@@H](CC(C)C)C(=O)N[C@@H](CC(C)C)C(=O)N[C@@H](C)C(=O)N[C@@H](CCC(N)=O)C(=O)N[C@@H](CCCNC(=N)N)C(=O)NCC(=O)O)C(C)C
B1: the “Human GIPR cAMP EC50, HEK293T” value in assay [1] was determined as 0.0003 nM. In assay [2], the “Human GLP1R cAMP EC50, HEK293T” value was found to be 95.5 nM.

B2: Compound No. 135 (peptide)
peptide: H-Y[Aib]EGTFISDYSIALDKIAQRK([AEEA-AEEA-γGlu-γGlu-C17 diacid])FVEWLLAQRPSSGAPPPS-OH
As to B2, the “Human GIPR cAMP EC50, HEK293T” value in assay [1] amounted to 0.0007 nM. Moreover, the “Human GLP1R cAMP EC50, HEK293T” value in assay [2] turned out to be 8.32 nM.

B3: Compound No. 134 (peptide)
peptide: H-Y[Aib]EGTFISDYSIALDKIAQQK([AEEA-AEEA-γGlu-γGlu-C17 diacid])FVEWLLAQRPSSGAPPPS-OH
Take B3: in assay [1], the “Human GIPR cAMP EC50, HEK293T” value was found to be 0.0006 nM. In addition, the “Human GLP1R cAMP EC50, HEK293T” value in assay [2] worked out at 170 nM.

B4: Compound No. 136 (peptide)
peptide: [NMeY][Aib]EGTFISDYSIALDR[Aib]K([Gly-Gly-Pro-Ala-Pro-Ala-Pro-γGlu-C18 diacid])Q[Aib]DFVNWLLAQSPG-OH
modifications: N-terminus assumed
SMILES: CC[C@H](C)[C@H](NC(=O)[C@H](CO)NC(=O)[C@H](Cc1ccc(O)cc1)NC(=O)[C@H](CC(=O)O)NC(=O)[C@H](CO)NC(=O)[C@@H](NC(=O)[C@H](Cc1ccccc1)NC(=O)[C@@H](NC(=O)CNC(=O)[C@H](CCC(=O)O)NC(=O)C(C)(C)NC(=O)[C@H](Cc1ccc(O)cc1)NC)[C@@H](C)O)[C@@H](C)CC)C(=O)N[C@@H](C)C(=O)N[C@@H](CC(C)C)C(=O)N[C@@H](CC(=O)O)C(=O)N[C@@H](CCCNC(=N)N)C(=O)NC(C)(C)C(=O)N[C@@H](CCCCNC(=O)CNC(=O)CNC(=O)[C@@H]1CCCN1C(=O)[C@H](C)NC(=O)[C@@H]1CCCN1C(=O)[C@H](C)NC(=O)[C@@H]1CCCN1C(=O)CC[C@H](NC(=O)CCCCCCCCCCCCCCCCC(=O)O)C(=O)O)C(=O)N[C@@H](CCC(N)=O)C(=O)NC(C)(C)C(=O)N[C@@H](CC(=O)O)C(=O)N[C@@H](Cc1ccccc1)C(=O)N[C@H](C(=O)N[C@@H](CC(N)=O)C(=O)N[C@@H](Cc1c[nH]c2ccccc12)C(=O)N[C@@H](CC(C)C)C(=O)N[C@@H](CC(C)C)C(=O)N[C@@H](C)C(=O)N[C@@H](CCC(N)=O)C(=O)N[C@@H](CO)C(=O)N1CCC[C@H]1C(=O)NCC(=O)O)C(C)C
Regarding B4, the “Human GIPR cAMP EC50, HEK293T” value in assay [1] came to 0.0007 nM. Besides, in assay [2], the “Human GLP1R cAMP EC50, HEK293T” value came out at 63.1 nM.

B5: Compound No. 128 (peptide)
peptide: YXEGTFISDYSIAXDRXAQXDFVNWLLAQSPG
modifications: N-terminus H; Aib at 2,17,20; Lys(G5-C18 diacid) at 14; C-terminal OH
Take B5: in assay [1], the “Human GIPR cAMP EC50, HEK293T” value came to 0.0009 nM. Further, the “Human GLP1R cAMP EC50, HEK293T” value in assay [2] was 7.24 nM.

B6: Compound No. 132 (peptide)
peptide: H-Y[Aib]EGTFISDYSIALDKIAQ[Aib]K([AEEA-AEEA-γGlu-γGlu-C17 diacid])FVEWLLAQRG-OH
B6: in assay [1], the “Human GIPR cAMP EC50, HEK293T” value stood at 0.0009 nM. Further, the “Human GLP1R cAMP EC50, HEK293T” value in assay [2] was 66.1 nM.

B7: Compound No. 133 (peptide)
peptide: H-Y[Aib]EGTFISDYSIALDKAAQ[Aib]K([AEEA-AEEA-γGlu-γGlu-C17 diacid])FVEWLLAQRG-OH
For the molecule B7, the “Human GIPR cAMP EC50, HEK293T” value in assay [1] was determined as 0.0012 nM. In addition, in assay [2], the “Human GLP1R cAMP EC50, HEK293T” value was found to be 58.9 nM.

B8: Compound No. 12 (peptide)
peptide: [NMeY][Aib]EGTFISDYSIAK([γGlu-γGlu-γGlu-C17 diacid])DR[Aib]AQ[Aib]NFVNWLLAQSPSSGAPPPS-NH2
Take B8: the “Human GIPR cAMP EC50, HEK293T” value in assay [1] was 0.0002 nM. The “Human GLP1R cAMP EC50, HEK293T” value in assay [2] worked out at 955 nM.

B9: Compound No. 131 (peptide)
peptide: H-Y[Aib]EGTFISDYSIALDK[Aib]AQAK([AEEA-AEEA-γGlu-γGlu-C17 diacid])FVEWLLAQRG-OH
SMILES: CC[C@H](C)[C@H](NC(=O)[C@H](CO)NC(=O)[C@H](Cc1ccc(O)cc1)NC(=O)[C@H](CC(=O)O)NC(=O)[C@H](CO)NC(=O)[C@@H](NC(=O)[C@H](Cc1ccccc1)NC(=O)[C@@H](NC(=O)CNC(=O)[C@H](CCC(=O)O)NC(=O)C(C)(C)NC(=O)[C@@H](N)Cc1ccc(O)cc1)[C@@H](C)O)[C@@H](C)CC)C(=O)N[C@@H](C)C(=O)N[C@@H](CC(C)C)C(=O)N[C@@H](CC(=O)O)C(=O)N[C@@H](CCCCN)C(=O)NC(C)(C)C(=O)N[C@@H](C)C(=O)N[C@@H](CCC(N)=O)C(=O)N[C@@H](C)C(=O)N[C@@H](CCCCNC(=O)COCCOCCNC(=O)COCCOCCNC(=O)CC[C@H](NC(=O)CC[C@H](NC(=O)CCCCCCCCCCCCCCCC(=O)O)C(=O)O)C(=O)O)C(=O)N[C@@H](Cc1ccccc1)C(=O)N[C@H](C(=O)N[C@@H](CCC(=O)O)C(=O)N[C@@H](Cc1c[nH]c2ccccc12)C(=O)N[C@@H](CC(C)C)C(=O)N[C@@H](CC(C)C)C(=O)N[C@@H](C)C(=O)N[C@@H](CCC(N)=O)C(=O)N[C@@H](CCCNC(=N)N)C(=O)NCC(=O)O)C(C)C
For the molecule B9, in assay [1], the “Human GIPR cAMP EC50, HEK293T” value is 0.0004 nM. For the same molecule, the “Human GLP1R cAMP EC50, HEK293T” value in assay [2] came to 151 nM.

B10: Compound No. 139 (peptide)
peptide: YXEGTFISDYSIXXDRXAQXDFVEWLLAQRG
modifications: N-terminus H; Aib at 2,13,17,20; Lys(G5-C18 diacid) at 14; C-terminal OH
Regarding B10, in assay [1], the “Human GIPR cAMP EC50, HEK293T” value was 0.0015 nM. In addition, the “Human GLP1R cAMP EC50, HEK293T” value in assay [2] came to 8.91 nM.

B11: Compound No. 138 (peptide)
peptide: YXEGTFISDYSIAXDRXAQXNFVNWLLAQSPSSGAPPPS
modifications: N-terminus H; Aib at 2,17,20; Lys(G5-C18 diacid) at 14; C-terminal OH
On to B11, for which, in assay [1], the “Human GIPR cAMP EC50, HEK293T” value amounted to 0.0008 nM. In addition, the “Human GLP1R cAMP EC50, HEK293T” value in assay [2] was 2.04 nM.

B12: Compound No. 127 (peptide)
peptide: [NMeY][Aib]EGTFISDYSI[Aib]LDR[Aib]AQ[Aib]K([AEEA-AEEA-γGlu-γGlu-C17 diacid])FVNWLLAQRG-OH
modifications: N-terminus assumed
SMILES: CC[C@H](C)[C@H](NC(=O)[C@H](Cc1ccccc1)NC(=O)[C@@H](NC(=O)CNC(=O)[C@H](CCC(=O)O)NC(=O)C(C)(C)NC(=O)[C@H](Cc1ccc(O)cc1)NC)[C@@H](C)O)C(=O)N[C@@H](CO)C(=O)N[C@@H](CC(=O)O)C(=O)N[C@@H](Cc1ccc(O)cc1)C(=O)N[C@@H](CO)C(=O)N[C@H](C(=O)NC(C)(C)C(=O)N[C@@H](CC(C)C)C(=O)N[C@@H](CC(=O)O)C(=O)N[C@@H](CCCNC(=N)N)C(=O)NC(C)(C)C(=O)N[C@@H](C)C(=O)N[C@@H](CCC(N)=O)C(=O)NC(C)(C)C(=O)N[C@@H](CCCCNC(=O)COCCOCCNC(=O)COCCOCCNC(=O)CC[C@H](NC(=O)CC[C@H](NC(=O)CCCCCCCCCCCCCCCC(=O)O)C(=O)O)C(=O)O)C(=O)N[C@@H](Cc1ccccc1)C(=O)N[C@H](C(=O)N[C@@H](CC(N)=O)C(=O)N[C@@H](Cc1c[nH]c2ccccc12)C(=O)N[C@@H](CC(C)C)C(=O)N[C@@H](CC(C)C)C(=O)N[C@@H](C)C(=O)N[C@@H](CCC(N)=O)C(=O)N[C@@H](CCCNC(=N)N)C(=O)NCC(=O)O)C(C)C)[C@@H](C)CC
B12: the “Human GIPR cAMP EC50, HEK293T” value in assay [1] worked out at 0.0007 nM. Further, the “Human GLP1R cAMP EC50, HEK293T” value in assay [2] was 63.1 nM.

B13: Compound No. 129 (peptide)
peptide: H-Y[Aib]EGTFISDYSI[Aib]LDKIAQQK([AEEA-AEEA-γGlu-γGlu-C17 diacid])FVEWLLAQRG-OH
SMILES: CC[C@H](C)[C@H](NC(=O)[C@H](CCCCN)NC(=O)[C@H](CC(=O)O)NC(=O)[C@H](CC(C)C)NC(=O)C(C)(C)NC(=O)[C@@H](NC(=O)[C@H](CO)NC(=O)[C@H](Cc1ccc(O)cc1)NC(=O)[C@H](CC(=O)O)NC(=O)[C@H](CO)NC(=O)[C@@H](NC(=O)[C@H](Cc1ccccc1)NC(=O)[C@@H](NC(=O)CNC(=O)[C@H](CCC(=O)O)NC(=O)C(C)(C)NC(=O)[C@@H](N)Cc1ccc(O)cc1)[C@@H](C)O)[C@@H](C)CC)[C@@H](C)CC)C(=O)N[C@@H](C)C(=O)N[C@@H](CCC(N)=O)C(=O)N[C@@H](CCC(N)=O)C(=O)N[C@@H](CCCCNC(=O)COCCOCCNC(=O)COCCOCCNC(=O)CC[C@H](NC(=O)CC[C@H](NC(=O)CCCCCCCCCCCCCCCC(=O)O)C(=O)O)C(=O)O)C(=O)N[C@@H](Cc1ccccc1)C(=O)N[C@H](C(=O)N[C@@H](CCC(=O)O)C(=O)N[C@@H](Cc1c[nH]c2ccccc12)C(=O)N[C@@H](CC(C)C)C(=O)N[C@@H](CC(C)C)C(=O)N[C@@H](C)C(=O)N[C@@H](CCC(N)=O)C(=O)N[C@@H](CCCNC(=N)N)C(=O)NCC(=O)O)C(C)C
For the molecule B13, the “Human GIPR cAMP EC50, HEK293T” value in assay [1] amounted to 0.0004 nM. Moreover, the “Human GLP1R cAMP EC50, HEK293T” value in assay [2] came to 115 nM.
